# From IntAct's records for PubMed 35512704
# B1: Speckle-type POZ protein (Homo sapiens), O43791 (parent)
# chain: MSRVPSPPPPAEMSSGPVAESWCYTQIKVVKFSYMWTINNFSFCREEMGEVIKSSTFSSGANDKLKWCLRVNPKGLDEESKDYLSLYLLLVSCPKSEVRAKFKFSILNAKGEETKAMESQRAYRFVQGKDWGFKKFIRRDFLLDEANGLLPDDKLTLFCEVSVVQDSVNISGQNTMNMVKVPECRLADELGGLWENSRFTDCCLCVAGQEFQAHKAILAARSPVFSAMFEHEMEESKKNRVEINDVEPEVFKEMMCFIYTGKAPNLDKMADDLLAAADKYALERLKVMCEDALCSNLSVENAAEILILADLHSADQLKTQAVDFINYHASDVLETSGWKSMVVSHPHLVAEAYRSLASAQCPFLGPPRKRLKQS
# Variants of: B1
# Conditions: with brd4_human BRD4, O60885
row,Variant,effect of a mutation on the interaction
1,MSRVPSPPPPAEMSSGPVAESWCYTQIKVVKFSYMWTINNFSFCREEMGEVIKSSTFSSGANDKLKWCLRVNPKGLDEESKDYLSLCLLLVSCPKSEVRAKFKFSILNAKGEETKAMESQRAYRFVQGKDWGFKKFIRRDFLLDEANGLLPDDKLTLFCEVSVVQDSVNISGQNTMNMVKVPECRLADELGGLWENSRFTDCCLCVAGQEFQAHKAILAARSPVFSAMFEHEMEESKKNRVEINDVEPEVFKEMMCFIYTGKAPNLDKMADDLLAAADKYALERLKVMCEDALCSNLSVENAAEILILADLHSADQLKTQAVDFINYHASDVLETSGWKSMVVSHPHLVAEAYRSLASAQCPFLGPPRKRLKQS [Y87C],disrupting interaction strength

# Variants of: B1
# Conditions: with ncoa3_human NCOA3, Q9Y6Q9
# Chain of ncoa3_human NCOA3, Q9Y6Q9 (Q9Y6Q9 whole entry, looked up): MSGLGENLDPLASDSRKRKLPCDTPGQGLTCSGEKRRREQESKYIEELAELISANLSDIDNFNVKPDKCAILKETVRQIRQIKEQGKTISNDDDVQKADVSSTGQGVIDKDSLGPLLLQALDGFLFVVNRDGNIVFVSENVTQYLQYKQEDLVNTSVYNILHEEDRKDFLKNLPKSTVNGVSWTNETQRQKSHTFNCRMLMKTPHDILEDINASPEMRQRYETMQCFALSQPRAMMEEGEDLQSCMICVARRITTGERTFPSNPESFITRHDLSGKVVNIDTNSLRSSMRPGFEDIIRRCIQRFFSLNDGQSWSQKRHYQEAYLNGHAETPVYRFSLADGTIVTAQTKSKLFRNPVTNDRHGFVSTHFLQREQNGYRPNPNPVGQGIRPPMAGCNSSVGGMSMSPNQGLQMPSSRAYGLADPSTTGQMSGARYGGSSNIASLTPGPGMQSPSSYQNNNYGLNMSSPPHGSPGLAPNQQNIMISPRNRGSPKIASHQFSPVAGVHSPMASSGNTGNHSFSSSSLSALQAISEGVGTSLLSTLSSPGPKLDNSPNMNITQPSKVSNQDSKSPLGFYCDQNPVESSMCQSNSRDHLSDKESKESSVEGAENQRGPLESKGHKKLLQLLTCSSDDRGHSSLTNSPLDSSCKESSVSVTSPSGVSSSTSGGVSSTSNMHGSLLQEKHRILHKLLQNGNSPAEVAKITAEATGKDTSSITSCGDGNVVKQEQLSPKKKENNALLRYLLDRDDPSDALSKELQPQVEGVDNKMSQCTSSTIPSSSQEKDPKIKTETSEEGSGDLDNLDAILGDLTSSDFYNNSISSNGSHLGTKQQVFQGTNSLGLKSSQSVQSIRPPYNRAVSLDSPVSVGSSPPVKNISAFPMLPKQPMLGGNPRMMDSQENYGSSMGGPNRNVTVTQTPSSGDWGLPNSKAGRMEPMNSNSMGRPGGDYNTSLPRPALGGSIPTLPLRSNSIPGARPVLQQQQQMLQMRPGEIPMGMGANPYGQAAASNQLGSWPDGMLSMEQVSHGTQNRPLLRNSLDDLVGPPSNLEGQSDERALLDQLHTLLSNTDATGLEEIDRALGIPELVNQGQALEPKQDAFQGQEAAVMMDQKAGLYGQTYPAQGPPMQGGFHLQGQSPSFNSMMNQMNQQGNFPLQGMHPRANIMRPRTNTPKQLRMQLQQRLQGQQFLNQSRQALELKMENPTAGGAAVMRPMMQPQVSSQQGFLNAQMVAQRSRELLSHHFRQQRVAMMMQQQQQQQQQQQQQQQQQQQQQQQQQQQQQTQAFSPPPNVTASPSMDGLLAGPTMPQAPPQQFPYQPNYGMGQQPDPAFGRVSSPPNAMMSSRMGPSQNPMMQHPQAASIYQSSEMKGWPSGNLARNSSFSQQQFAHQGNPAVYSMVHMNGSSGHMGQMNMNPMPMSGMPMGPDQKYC
row,Variant,effect of a mutation on the interaction
1,MSRVPSPPPPAEMSSGPVAESWCYTQIKVVKFSYMWTINNFSFCREEMGEVIKSSTFSSGANDKLKWCLRVNPKGLDEESKDYLSLCLLLVSCPKSEVRAKFKFSILNAKGEETKAMESQRAYRFVQGKDWGFKKFIRRDFLLDEANGLLPDDKLTLFCEVSVVQDSVNISGQNTMNMVKVPECRLADELGGLWENSRFTDCCLCVAGQEFQAHKAILAARSPVFSAMFEHEMEESKKNRVEINDVEPEVFKEMMCFIYTGKAPNLDKMADDLLAAADKYALERLKVMCEDALCSNLSVENAAEILILADLHSADQLKTQAVDFINYHASDVLETSGWKSMVVSHPHLVAEAYRSLASAQCPFLGPPRKRLKQS [Y87C],disrupting interaction strength

# Variants of: B1
# Conditions: with jun_human JUN
row,Variant,effect of a mutation on the interaction
1,MSRVPSPPPPAEMSSGPVAESWCYTQIKVVKFSYMWTINNFSFCREEMGEVIKSSTFSSGANDKLKWCLRVNPKGLDEESKDYLSLCLLLVSCPKSEVRAKFKFSILNAKGEETKAMESQRAYRFVQGKDWGFKKFIRRDFLLDEANGLLPDDKLTLFCEVSVVQDSVNISGQNTMNMVKVPECRLADELGGLWENSRFTDCCLCVAGQEFQAHKAILAARSPVFSAMFEHEMEESKKNRVEINDVEPEVFKEMMCFIYTGKAPNLDKMADDLLAAADKYALERLKVMCEDALCSNLSVENAAEILILADLHSADQLKTQAVDFINYHASDVLETSGWKSMVVSHPHLVAEAYRSLASAQCPFLGPPRKRLKQS [Y87C],disrupting interaction strength

# Variants of: B1
# Conditions: with akt1_human AKT1, P31749
# Chain of akt1_human AKT1, P31749 (P31749 whole entry): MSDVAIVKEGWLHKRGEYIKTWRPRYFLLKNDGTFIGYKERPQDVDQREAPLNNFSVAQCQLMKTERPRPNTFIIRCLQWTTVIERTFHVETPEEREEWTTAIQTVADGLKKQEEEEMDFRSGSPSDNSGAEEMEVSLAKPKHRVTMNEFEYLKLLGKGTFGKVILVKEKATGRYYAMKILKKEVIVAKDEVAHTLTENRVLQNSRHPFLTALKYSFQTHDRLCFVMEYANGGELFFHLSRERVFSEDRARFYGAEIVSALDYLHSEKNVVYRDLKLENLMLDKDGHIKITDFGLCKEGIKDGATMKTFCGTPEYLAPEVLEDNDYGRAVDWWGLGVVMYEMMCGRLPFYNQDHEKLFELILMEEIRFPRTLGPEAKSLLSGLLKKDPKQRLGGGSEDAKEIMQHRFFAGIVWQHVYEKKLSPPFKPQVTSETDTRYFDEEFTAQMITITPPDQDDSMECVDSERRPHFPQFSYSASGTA
row,Variant,effect of a mutation on the interaction
1,MSRVPSPPPPAEMSSGPVAESWCYTQIKVVKFSYMWTINNFSFCREEMGEVIKSSTFSSGANDKLKWCLRVNPKGLDEESKDYLSLCLLLVSCPKSEVRAKFKFSILNAKGEETKAMESQRAYRFVQGKDWGFKKFIRRDFLLDEANGLLPDDKLTLFCEVSVVQDSVNISGQNTMNMVKVPECRLADELGGLWENSRFTDCCLCVAGQEFQAHKAILAARSPVFSAMFEHEMEESKKNRVEINDVEPEVFKEMMCFIYTGKAPNLDKMADDLLAAADKYALERLKVMCEDALCSNLSVENAAEILILADLHSADQLKTQAVDFINYHASDVLETSGWKSMVVSHPHLVAEAYRSLASAQCPFLGPPRKRLKQS [Y87C],with no effect

# Variants of: B1
# Conditions: with alk_human ALK
row,Variant,effect of a mutation on the interaction
1,MSRVPSPPPPAEMSSGPVAESWCYTQIKVVKFSYMWTINNFSFCREEMGEVIKSSTFSSGANDKLKWCLRVNPKGLDEESKDYLSLCLLLVSCPKSEVRAKFKFSILNAKGEETKAMESQRAYRFVQGKDWGFKKFIRRDFLLDEANGLLPDDKLTLFCEVSVVQDSVNISGQNTMNMVKVPECRLADELGGLWENSRFTDCCLCVAGQEFQAHKAILAARSPVFSAMFEHEMEESKKNRVEINDVEPEVFKEMMCFIYTGKAPNLDKMADDLLAAADKYALERLKVMCEDALCSNLSVENAAEILILADLHSADQLKTQAVDFINYHASDVLETSGWKSMVVSHPHLVAEAYRSLASAQCPFLGPPRKRLKQS [Y87C],with no effect

# Variants of: B1
# Conditions: with aph1a_human APH1A
row,Variant,effect of a mutation on the interaction
1,MSRVPSPPPPAEMSSGPVAESWCYTQIKVVKFSYMWTINNFSFCREEMGEVIKSSTFSSGANDKLKWCLRVNPKGLDEESKDYLSLCLLLVSCPKSEVRAKFKFSILNAKGEETKAMESQRAYRFVQGKDWGFKKFIRRDFLLDEANGLLPDDKLTLFCEVSVVQDSVNISGQNTMNMVKVPECRLADELGGLWENSRFTDCCLCVAGQEFQAHKAILAARSPVFSAMFEHEMEESKKNRVEINDVEPEVFKEMMCFIYTGKAPNLDKMADDLLAAADKYALERLKVMCEDALCSNLSVENAAEILILADLHSADQLKTQAVDFINYHASDVLETSGWKSMVVSHPHLVAEAYRSLASAQCPFLGPPRKRLKQS [Y87C],with no effect

# Variants of: B1
# Conditions: with arnt_human ARNT
row,Variant,effect of a mutation on the interaction
1,MSRVPSPPPPAEMSSGPVAESWCYTQIKVVKFSYMWTINNFSFCREEMGEVIKSSTFSSGANDKLKWCLRVNPKGLDEESKDYLSLCLLLVSCPKSEVRAKFKFSILNAKGEETKAMESQRAYRFVQGKDWGFKKFIRRDFLLDEANGLLPDDKLTLFCEVSVVQDSVNISGQNTMNMVKVPECRLADELGGLWENSRFTDCCLCVAGQEFQAHKAILAARSPVFSAMFEHEMEESKKNRVEINDVEPEVFKEMMCFIYTGKAPNLDKMADDLLAAADKYALERLKVMCEDALCSNLSVENAAEILILADLHSADQLKTQAVDFINYHASDVLETSGWKSMVVSHPHLVAEAYRSLASAQCPFLGPPRKRLKQS [Y87C],with no effect

# Variants of: B1
# Conditions: with arc1a_human ARPC1A
row,Variant,effect of a mutation on the interaction
1,MSRVPSPPPPAEMSSGPVAESWCYTQIKVVKFSYMWTINNFSFCREEMGEVIKSSTFSSGANDKLKWCLRVNPKGLDEESKDYLSLCLLLVSCPKSEVRAKFKFSILNAKGEETKAMESQRAYRFVQGKDWGFKKFIRRDFLLDEANGLLPDDKLTLFCEVSVVQDSVNISGQNTMNMVKVPECRLADELGGLWENSRFTDCCLCVAGQEFQAHKAILAARSPVFSAMFEHEMEESKKNRVEINDVEPEVFKEMMCFIYTGKAPNLDKMADDLLAAADKYALERLKVMCEDALCSNLSVENAAEILILADLHSADQLKTQAVDFINYHASDVLETSGWKSMVVSHPHLVAEAYRSLASAQCPFLGPPRKRLKQS [Y87C],with no effect

# Variants of: B1
# Conditions: with asxl2_human ASXL2, Q76L83
# Chain of asxl2_human ASXL2, Q76L83 (Q76L83 whole entry): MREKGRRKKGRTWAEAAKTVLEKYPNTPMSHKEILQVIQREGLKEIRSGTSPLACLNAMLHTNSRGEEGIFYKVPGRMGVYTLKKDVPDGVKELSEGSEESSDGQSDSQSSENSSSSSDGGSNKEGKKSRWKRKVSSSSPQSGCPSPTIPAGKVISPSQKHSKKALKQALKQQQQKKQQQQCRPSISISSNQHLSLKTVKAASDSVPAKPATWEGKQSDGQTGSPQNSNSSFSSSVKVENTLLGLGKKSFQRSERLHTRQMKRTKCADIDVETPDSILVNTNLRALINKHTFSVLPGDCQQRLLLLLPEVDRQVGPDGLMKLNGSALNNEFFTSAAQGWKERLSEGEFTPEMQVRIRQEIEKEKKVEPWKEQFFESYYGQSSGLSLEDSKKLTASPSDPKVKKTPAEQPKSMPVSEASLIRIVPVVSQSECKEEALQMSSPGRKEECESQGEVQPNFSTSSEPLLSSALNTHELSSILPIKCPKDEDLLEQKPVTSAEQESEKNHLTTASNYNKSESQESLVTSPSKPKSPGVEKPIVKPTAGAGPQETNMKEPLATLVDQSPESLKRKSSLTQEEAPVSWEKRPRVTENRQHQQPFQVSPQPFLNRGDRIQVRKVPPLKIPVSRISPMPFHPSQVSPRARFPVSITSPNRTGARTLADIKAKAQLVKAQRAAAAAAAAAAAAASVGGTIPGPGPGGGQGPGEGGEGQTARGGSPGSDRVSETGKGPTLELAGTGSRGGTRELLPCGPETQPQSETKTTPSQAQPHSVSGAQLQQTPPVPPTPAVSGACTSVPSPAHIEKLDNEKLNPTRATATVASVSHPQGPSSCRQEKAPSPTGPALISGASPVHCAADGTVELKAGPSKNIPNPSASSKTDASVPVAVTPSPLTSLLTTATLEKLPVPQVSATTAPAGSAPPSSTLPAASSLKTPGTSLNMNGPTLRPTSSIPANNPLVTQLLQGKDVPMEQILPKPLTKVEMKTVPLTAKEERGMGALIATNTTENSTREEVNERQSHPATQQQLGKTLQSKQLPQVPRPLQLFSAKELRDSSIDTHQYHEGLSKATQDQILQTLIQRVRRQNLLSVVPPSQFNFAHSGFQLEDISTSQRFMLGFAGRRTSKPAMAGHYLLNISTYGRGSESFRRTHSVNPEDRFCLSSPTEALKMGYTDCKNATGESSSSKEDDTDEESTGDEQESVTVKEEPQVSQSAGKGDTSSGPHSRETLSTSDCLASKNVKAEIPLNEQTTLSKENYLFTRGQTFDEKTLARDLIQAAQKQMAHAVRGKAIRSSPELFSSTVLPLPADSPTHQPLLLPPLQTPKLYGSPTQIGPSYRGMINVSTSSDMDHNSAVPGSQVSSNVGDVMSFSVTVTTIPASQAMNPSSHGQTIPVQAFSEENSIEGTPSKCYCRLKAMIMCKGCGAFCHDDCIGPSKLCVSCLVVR
row,Variant,effect of a mutation on the interaction
1,MSRVPSPPPPAEMSSGPVAESWCYTQIKVVKFSYMWTINNFSFCREEMGEVIKSSTFSSGANDKLKWCLRVNPKGLDEESKDYLSLCLLLVSCPKSEVRAKFKFSILNAKGEETKAMESQRAYRFVQGKDWGFKKFIRRDFLLDEANGLLPDDKLTLFCEVSVVQDSVNISGQNTMNMVKVPECRLADELGGLWENSRFTDCCLCVAGQEFQAHKAILAARSPVFSAMFEHEMEESKKNRVEINDVEPEVFKEMMCFIYTGKAPNLDKMADDLLAAADKYALERLKVMCEDALCSNLSVENAAEILILADLHSADQLKTQAVDFINYHASDVLETSGWKSMVVSHPHLVAEAYRSLASAQCPFLGPPRKRLKQS [Y87C],with no effect

# Variants of: B1
# Conditions: with bakor_human ATG14, Q6ZNE5
# Chain of bakor_human ATG14, Q6ZNE5 (Q6ZNE5 whole entry): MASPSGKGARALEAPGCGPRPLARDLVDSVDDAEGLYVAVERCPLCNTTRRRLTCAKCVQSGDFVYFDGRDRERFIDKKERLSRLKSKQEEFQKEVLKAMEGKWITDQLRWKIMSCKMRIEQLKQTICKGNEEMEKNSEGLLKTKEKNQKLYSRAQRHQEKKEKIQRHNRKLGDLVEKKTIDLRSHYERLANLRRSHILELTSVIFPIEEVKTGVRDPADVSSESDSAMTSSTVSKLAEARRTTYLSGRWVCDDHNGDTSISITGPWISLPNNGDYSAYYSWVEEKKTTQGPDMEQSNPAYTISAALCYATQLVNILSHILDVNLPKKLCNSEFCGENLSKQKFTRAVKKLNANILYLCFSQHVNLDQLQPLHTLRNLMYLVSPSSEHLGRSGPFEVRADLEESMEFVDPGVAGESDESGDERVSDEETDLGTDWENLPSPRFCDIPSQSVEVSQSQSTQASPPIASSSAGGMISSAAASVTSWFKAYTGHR
row,Variant,effect of a mutation on the interaction
1,MSRVPSPPPPAEMSSGPVAESWCYTQIKVVKFSYMWTINNFSFCREEMGEVIKSSTFSSGANDKLKWCLRVNPKGLDEESKDYLSLCLLLVSCPKSEVRAKFKFSILNAKGEETKAMESQRAYRFVQGKDWGFKKFIRRDFLLDEANGLLPDDKLTLFCEVSVVQDSVNISGQNTMNMVKVPECRLADELGGLWENSRFTDCCLCVAGQEFQAHKAILAARSPVFSAMFEHEMEESKKNRVEINDVEPEVFKEMMCFIYTGKAPNLDKMADDLLAAADKYALERLKVMCEDALCSNLSVENAAEILILADLHSADQLKTQAVDFINYHASDVLETSGWKSMVVSHPHLVAEAYRSLASAQCPFLGPPRKRLKQS [Y87C],with no effect

# Variants of: B1
# Conditions: with atm_human ATM
row,Variant,effect of a mutation on the interaction
1,MSRVPSPPPPAEMSSGPVAESWCYTQIKVVKFSYMWTINNFSFCREEMGEVIKSSTFSSGANDKLKWCLRVNPKGLDEESKDYLSLCLLLVSCPKSEVRAKFKFSILNAKGEETKAMESQRAYRFVQGKDWGFKKFIRRDFLLDEANGLLPDDKLTLFCEVSVVQDSVNISGQNTMNMVKVPECRLADELGGLWENSRFTDCCLCVAGQEFQAHKAILAARSPVFSAMFEHEMEESKKNRVEINDVEPEVFKEMMCFIYTGKAPNLDKMADDLLAAADKYALERLKVMCEDALCSNLSVENAAEILILADLHSADQLKTQAVDFINYHASDVLETSGWKSMVVSHPHLVAEAYRSLASAQCPFLGPPRKRLKQS [Y87C],with no effect

# Variants of: B1
# Conditions: with atpb_human ATP5F1B
row,Variant,effect of a mutation on the interaction
1,MSRVPSPPPPAEMSSGPVAESWCYTQIKVVKFSYMWTINNFSFCREEMGEVIKSSTFSSGANDKLKWCLRVNPKGLDEESKDYLSLCLLLVSCPKSEVRAKFKFSILNAKGEETKAMESQRAYRFVQGKDWGFKKFIRRDFLLDEANGLLPDDKLTLFCEVSVVQDSVNISGQNTMNMVKVPECRLADELGGLWENSRFTDCCLCVAGQEFQAHKAILAARSPVFSAMFEHEMEESKKNRVEINDVEPEVFKEMMCFIYTGKAPNLDKMADDLLAAADKYALERLKVMCEDALCSNLSVENAAEILILADLHSADQLKTQAVDFINYHASDVLETSGWKSMVVSHPHLVAEAYRSLASAQCPFLGPPRKRLKQS [Y87C],with no effect

# Variants of: B1
# Conditions: with aurkb_human AURKB
row,Variant,effect of a mutation on the interaction
1,MSRVPSPPPPAEMSSGPVAESWCYTQIKVVKFSYMWTINNFSFCREEMGEVIKSSTFSSGANDKLKWCLRVNPKGLDEESKDYLSLCLLLVSCPKSEVRAKFKFSILNAKGEETKAMESQRAYRFVQGKDWGFKKFIRRDFLLDEANGLLPDDKLTLFCEVSVVQDSVNISGQNTMNMVKVPECRLADELGGLWENSRFTDCCLCVAGQEFQAHKAILAARSPVFSAMFEHEMEESKKNRVEINDVEPEVFKEMMCFIYTGKAPNLDKMADDLLAAADKYALERLKVMCEDALCSNLSVENAAEILILADLHSADQLKTQAVDFINYHASDVLETSGWKSMVVSHPHLVAEAYRSLASAQCPFLGPPRKRLKQS [Y87C],with no effect

# Variants of: B1
# Conditions: with axin2_human AXIN2, Q9Y2T1
# Chain of axin2_human AXIN2, Q9Y2T1 (Q9Y2T1 whole entry): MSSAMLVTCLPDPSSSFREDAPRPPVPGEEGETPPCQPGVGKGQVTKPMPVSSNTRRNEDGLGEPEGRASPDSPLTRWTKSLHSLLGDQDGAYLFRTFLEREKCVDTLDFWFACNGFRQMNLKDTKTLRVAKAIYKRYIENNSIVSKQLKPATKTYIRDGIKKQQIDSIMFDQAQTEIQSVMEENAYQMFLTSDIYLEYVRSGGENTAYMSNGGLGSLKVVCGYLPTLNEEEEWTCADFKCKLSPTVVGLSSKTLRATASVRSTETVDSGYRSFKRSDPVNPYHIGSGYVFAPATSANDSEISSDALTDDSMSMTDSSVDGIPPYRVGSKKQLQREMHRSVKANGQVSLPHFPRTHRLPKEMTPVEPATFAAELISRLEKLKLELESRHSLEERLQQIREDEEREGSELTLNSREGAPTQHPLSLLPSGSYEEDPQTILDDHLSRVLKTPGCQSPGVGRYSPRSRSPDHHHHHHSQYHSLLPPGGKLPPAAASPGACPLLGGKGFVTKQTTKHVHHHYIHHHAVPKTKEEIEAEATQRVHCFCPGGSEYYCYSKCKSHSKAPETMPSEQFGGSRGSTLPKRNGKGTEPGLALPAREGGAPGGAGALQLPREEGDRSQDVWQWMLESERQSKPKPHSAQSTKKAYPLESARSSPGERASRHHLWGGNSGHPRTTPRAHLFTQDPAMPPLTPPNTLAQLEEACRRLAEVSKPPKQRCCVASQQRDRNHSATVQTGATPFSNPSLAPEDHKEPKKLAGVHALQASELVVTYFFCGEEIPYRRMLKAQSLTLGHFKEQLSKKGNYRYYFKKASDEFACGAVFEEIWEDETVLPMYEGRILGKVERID
row,Variant,effect of a mutation on the interaction
1,MSRVPSPPPPAEMSSGPVAESWCYTQIKVVKFSYMWTINNFSFCREEMGEVIKSSTFSSGANDKLKWCLRVNPKGLDEESKDYLSLCLLLVSCPKSEVRAKFKFSILNAKGEETKAMESQRAYRFVQGKDWGFKKFIRRDFLLDEANGLLPDDKLTLFCEVSVVQDSVNISGQNTMNMVKVPECRLADELGGLWENSRFTDCCLCVAGQEFQAHKAILAARSPVFSAMFEHEMEESKKNRVEINDVEPEVFKEMMCFIYTGKAPNLDKMADDLLAAADKYALERLKVMCEDALCSNLSVENAAEILILADLHSADQLKTQAVDFINYHASDVLETSGWKSMVVSHPHLVAEAYRSLASAQCPFLGPPRKRLKQS [Y87C],with no effect

# Variants of: B1
# Conditions: with ufo_human AXL
row,Variant,effect of a mutation on the interaction
1,MSRVPSPPPPAEMSSGPVAESWCYTQIKVVKFSYMWTINNFSFCREEMGEVIKSSTFSSGANDKLKWCLRVNPKGLDEESKDYLSLCLLLVSCPKSEVRAKFKFSILNAKGEETKAMESQRAYRFVQGKDWGFKKFIRRDFLLDEANGLLPDDKLTLFCEVSVVQDSVNISGQNTMNMVKVPECRLADELGGLWENSRFTDCCLCVAGQEFQAHKAILAARSPVFSAMFEHEMEESKKNRVEINDVEPEVFKEMMCFIYTGKAPNLDKMADDLLAAADKYALERLKVMCEDALCSNLSVENAAEILILADLHSADQLKTQAVDFINYHASDVLETSGWKSMVVSHPHLVAEAYRSLASAQCPFLGPPRKRLKQS [Y87C],with no effect
